From paper PMC6111841
Several values for one entry are separate records, joined by “and”; a condition that tells them apart may be missing. Equal entries are not always repeated.

Key:
HelD (Bacillus subtilis) [1] = target: HelD (Bacillus subtilis) (UniProt O32215); test: AUC; sedimentation velocity, HelD 5 uM in Buffer A (20 mM HEPES pH 7.5, 150 mM NaCl), 40,000 rpm, 4 °C, c(s) model in SEDFIT
HelD (Bacillus subtilis) [2] = target: HelD (Bacillus subtilis) (UniProt O32215); test: SEC; Superdex 200 Increase 10/300 GL, Buffer A (20 mM HEPES pH 7.5, 150 mM NaCl), 500 uL purified protein, 0.5 mL/min, 4 °C

Sequence of HelD (O32215 whole entry): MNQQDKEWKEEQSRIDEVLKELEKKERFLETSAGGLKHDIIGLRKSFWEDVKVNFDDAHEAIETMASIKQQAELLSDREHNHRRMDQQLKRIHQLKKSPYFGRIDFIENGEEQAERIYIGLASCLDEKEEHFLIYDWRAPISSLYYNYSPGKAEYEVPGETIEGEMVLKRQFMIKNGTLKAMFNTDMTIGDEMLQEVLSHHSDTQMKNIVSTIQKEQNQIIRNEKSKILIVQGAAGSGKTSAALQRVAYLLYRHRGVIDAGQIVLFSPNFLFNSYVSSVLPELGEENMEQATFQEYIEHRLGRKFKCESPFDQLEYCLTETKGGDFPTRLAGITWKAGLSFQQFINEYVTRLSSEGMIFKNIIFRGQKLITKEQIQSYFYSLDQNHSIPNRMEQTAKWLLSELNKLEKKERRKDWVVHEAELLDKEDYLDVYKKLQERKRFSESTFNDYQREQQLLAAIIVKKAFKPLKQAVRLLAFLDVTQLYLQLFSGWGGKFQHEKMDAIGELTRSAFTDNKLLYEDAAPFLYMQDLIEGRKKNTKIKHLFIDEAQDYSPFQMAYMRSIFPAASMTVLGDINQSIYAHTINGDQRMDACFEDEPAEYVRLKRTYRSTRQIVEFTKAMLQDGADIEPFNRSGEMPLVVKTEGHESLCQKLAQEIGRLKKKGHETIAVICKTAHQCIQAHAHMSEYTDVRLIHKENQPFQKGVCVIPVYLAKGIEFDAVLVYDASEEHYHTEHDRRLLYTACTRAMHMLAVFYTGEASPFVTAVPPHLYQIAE

- population of higher order oligomers (HelD (Bacillus subtilis) [1]): 20%
- stoichiometry N (HelD (Bacillus subtilis) [2]): 2 and 3
Substance: HelD (from UniProt O32215 1-774) (natural protein)
